# Where no end group is shown, it is not given here. [ ]: non-standard residue; d: D form. PEO12 = PEO12, 0.6 kDa, monodispersed; PEO24 = PEO24, 1.2 kDa, monodispersed; tBuAla = CC(C)(C)C[C@H](N)C(=O)O; Cit = NC(=O)NCCC[C@H](N)C(=O)O
# Molecular target: T1, NPR-B (natriuretic peptide receptor B), murine, expressed endogenously on NIH3T3 cells (murine, UniProt Q6VVW5 17-1047)
# T1 sequence (looked up): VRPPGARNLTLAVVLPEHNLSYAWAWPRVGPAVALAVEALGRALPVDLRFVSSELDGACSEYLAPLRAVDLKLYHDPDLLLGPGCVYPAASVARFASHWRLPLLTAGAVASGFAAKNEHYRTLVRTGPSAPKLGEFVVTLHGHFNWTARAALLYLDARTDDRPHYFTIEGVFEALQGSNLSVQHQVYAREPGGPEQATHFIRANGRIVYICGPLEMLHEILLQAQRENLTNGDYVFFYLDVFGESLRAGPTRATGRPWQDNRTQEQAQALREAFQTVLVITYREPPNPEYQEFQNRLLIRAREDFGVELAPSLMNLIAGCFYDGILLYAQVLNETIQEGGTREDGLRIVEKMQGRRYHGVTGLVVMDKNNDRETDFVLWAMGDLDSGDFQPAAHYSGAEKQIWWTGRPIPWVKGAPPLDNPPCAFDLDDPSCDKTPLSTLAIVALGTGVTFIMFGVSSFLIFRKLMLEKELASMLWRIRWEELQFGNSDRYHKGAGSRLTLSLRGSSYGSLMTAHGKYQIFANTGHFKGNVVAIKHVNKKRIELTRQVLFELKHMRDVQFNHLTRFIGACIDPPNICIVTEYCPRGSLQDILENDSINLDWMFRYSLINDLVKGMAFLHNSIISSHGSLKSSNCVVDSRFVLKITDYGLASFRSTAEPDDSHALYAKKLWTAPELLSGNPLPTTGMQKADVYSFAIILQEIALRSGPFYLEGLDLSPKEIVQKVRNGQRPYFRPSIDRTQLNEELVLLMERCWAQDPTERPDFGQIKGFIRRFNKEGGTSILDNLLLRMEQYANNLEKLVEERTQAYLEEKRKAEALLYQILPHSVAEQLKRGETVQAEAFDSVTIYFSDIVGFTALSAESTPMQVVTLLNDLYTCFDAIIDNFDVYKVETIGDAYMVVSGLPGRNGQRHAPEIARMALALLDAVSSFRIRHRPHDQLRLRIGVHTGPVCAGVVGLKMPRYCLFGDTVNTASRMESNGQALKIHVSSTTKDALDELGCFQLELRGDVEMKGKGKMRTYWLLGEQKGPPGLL
# Assay: cell-based or functional assay
Binder,"cGMP response rel. to 1 uM CNP22; 10 nM peptide, NIH3T3 cells","cGMP response rel. to 1 uM CNP22; 1 uM peptide, NIH3T3 cells"
"GLSRGCFGLKLDRIGSMSRLGC [CNP22, K4R, G19R]",22 rel. to 1 uM CNP22 (100),84 rel. to 1 uM CNP22 (100)
"GLSRSCFGLKLDRIGSMSGLGC [CNP22, K4R, G5S]",45 rel. to 1 uM CNP22 (100),–
"GLSRGCFGLKLDRIRSMSGLGC [CNP22, K4R, G15R]",0.3 rel. to 1 uM CNP22 (100),0.3 rel. to 1 uM CNP22 (100)
"GLSRGCFGLKLDRINSMSGLGC [CNP22, K4R, G15N]",4 rel. to 1 uM CNP22 (100),41 rel. to 1 uM CNP22 (100)
"GLSRGCFGLKLDRIGSMSGVGC [CNP22, K4R, L20V]",0.2 rel. to 1 uM CNP22 (100),8 rel. to 1 uM CNP22 (100)
"GLSRGCFGL[Cit]LDRIGSMSGLGC (ends and bridges not checked) [CNP22, K4R, K10Cit]",6 rel. to 1 uM CNP22 (100),33 rel. to 1 uM CNP22 (100)
"GLSRGCFGLKLDRIGSNSGLGC [CNP22, K4R, M17N]",40 rel. to 1 uM CNP22 (100),103 rel. to 1 uM CNP22 (100)
"GLSRGCFGLKLDRIGQMSGLGC [CNP22, K4R, S16Q]",42 rel. to 1 uM CNP22 (100),116 rel. to 1 uM CNP22 (100)
"GLSRGCYGLKLDRIGSMSGLGC (ends and bridges not checked; cysteine pairing not given here) [CNP22, K4R, F7Y]",2 rel. to 1 uM CNP22 (100),18 rel. to 1 uM CNP22 (100)
"GLSRRCFGLKLDRIGSMSGLGC [CNP22, K4R, G5R]",18 rel. to 1 uM CNP22 (100),80 rel. to 1 uM CNP22 (100)
"GLSRGCFGLKLDRIGSMSGLRC [CNP22, K4R, G21R]",20 rel. to 1 uM CNP22 (100),21 rel. to 1 uM CNP22 (100)
"GLSRGCFGLKLDRIGSMSG[tBuAla]GC (ends and bridges not checked) [CNP22, K4R, L20t-butyl-Ala]",1 rel. to 1 uM CNP22 (100),21 rel. to 1 uM CNP22 (100)
"GLSRGCFGLRLDRIGSMSGLGC [CNP22, K4R, K10R]",12 rel. to 1 uM CNP22 (100),80 rel. to 1 uM CNP22 (100)
"ELSEGCFGLKLDRIGSMSGLGC [CNP22, G1E, K4E]",11 rel. to 1 uM CNP22 (100),54 rel. to 1 uM CNP22 (100)
"GLSRGCFVLKLDRIGSMSGLGC [CNP22, K4R, G8V]",3 rel. to 1 uM CNP22 (100),25 rel. to 1 uM CNP22 (100)
"GLSRGCFSLKLDRIGSMSGLGC [CNP22, K4R, G8S]",26 rel. to 1 uM CNP22 (100),86 rel. to 1 uM CNP22 (100)
"GLSRGCFGLKLDRIGSMSSLGC [CNP22, K4R, G19S]",21 rel. to 1 uM CNP22 (100),63 rel. to 1 uM CNP22 (100)
"GLSRGCFGLKLDRI[Cit]SMSGLGC (ends and bridges not checked) [CNP22, K4R, G15Cit]",1.4 rel. to 1 uM CNP22 (100),2 rel. to 1 uM CNP22 (100)
"GLSRGCFGLKLDRISSMSGLGC [CNP22, K4R, G15S]",13 rel. to 1 uM CNP22 (100),71 rel. to 1 uM CNP22 (100)
"GLSRGCFGTKLDRIGSMSGLGC [CNP22, K4R, L9T]",4 rel. to 1 uM CNP22 (100),68 rel. to 1 uM CNP22 (100)
"GLSRGCFGLKLDRIGSVSGLGC [CNP22, K4R, M17V]",10 rel. to 1 uM CNP22 (100),65 rel. to 1 uM CNP22 (100)
"GLSRGCFTLKLDRIGSMSGLGC [CNP22, K4R, G8T]",11 rel. to 1 uM CNP22 (100),66 rel. to 1 uM CNP22 (100)
"GLSRGCFGLKLDRIGSMSGLTC [CNP22, K4R, G21T]",6 rel. to 1 uM CNP22 (100),21 rel. to 1 uM CNP22 (100)
"GLSRGCFGLSLDRIGSMSGLGC [CNP22, K4R, K10S]",16 rel. to 1 uM CNP22 (100),53 rel. to 1 uM CNP22 (100)
"GLSRGCFGLKLDRIGSMSGLGC [CNP22, K4R]",59 rel. to 1 uM CNP22 (100),121 rel. to 1 uM CNP22 (100)
"GLSRGCFGLKLDRIGSMSGRGC [CNP22, K4R, L20R]",11 rel. to 1 uM CNP22 (100),8 rel. to 1 uM CNP22 (100)
"GLSRGCFGLQLDRIGSMSGLGC [CNP22, K4R, K10Q]",9 rel. to 1 uM CNP22 (100),45 rel. to 1 uM CNP22 (100)

# Molecular target: T1, NPR-B (natriuretic peptide receptor B), …
# Assay: cell-based or functional assay
# Remark: another data set of the same source
Binder,"cGMP response rel. to 1 uM CNP22; 10 nM peptide, NIH3T3 cells","cGMP response rel. to 1 uM CNP22; 1 uM peptide, NIH3T3 cells"
{PEG 2 kDa}-GLSKGCFGLKLDRIGSMSGLGC (ends and bridges not checked) [PEG2K-CNP22],6 rel. to 1 uM CNP22 (100),32 rel. to 1 uM CNP22 (100)
GLSKGCFGLKLDRIGSMSGLGC (not fully specified (N-terminus); ends and bridges not checked) [(PEO12)-Biotin-CNP22],19 rel. to 1 uM CNP22 (100),81 rel. to 1 uM CNP22 (100)
{PEO4‑(PEO12)3 (branched)}-GLSKGCFGLKLDRIGSMSGLGC (ends and bridges not checked) [PEO4-(PEO12)3 (branched)-CNP22],17 rel. to 1 uM CNP22 (100),52 rel. to 1 uM CNP22 (100)
{PEG 1 kDa}-GLSKGCFGLKLDRIGSMSGLGC (ends and bridges not checked; also: PEG polydispersed) [PEG1K-CNP22],15 rel. to 1 uM CNP22 (100),68 rel. to 1 uM CNP22 (100)
PEO24-GLSKGCFGLKLDRIGSMSGLGC (ends and bridges not checked) [PEO24-CNP22],8 rel. to 1 uM CNP22 (100),46 rel. to 1 uM CNP22 (100)
PEO12-GLSKGCFGLKLDRIGSMSGLGC (ends and bridges not checked) [PEO12-CNP22],12 rel. to 1 uM CNP22 (100),57 rel. to 1 uM CNP22 (100)
{PEG 5 kDa}-GLSKGCFGLKLDRIGSMSGLGC (ends and bridges not checked; also: PEG polydispersed) [PEG5K-CNP22],8 rel. to 1 uM CNP22 (100),20 rel. to 1 uM CNP22 (100)
{PEG 20 kDa}-GLSKGCFGLKLDRIGSMSGLGC (ends and bridges not checked) [PEG20K-CNP22],0 rel. to 1 uM CNP22 (100),15 rel. to 1 uM CNP22 (100)

# Source: patent publication USRE48267E1, “Variants of C-type natriuretic peptide” (priority 2009, dated 2020)
